What was measured:
[1] = tested on: P. expansum; test: Pathogenicity assay in apples (EaAiiA)
Experimental: The lesion size of the treated apples was measured 3 days after inoculation with P. expansum. Mean values of 18 replicates are presented (**** p<0.0001, according to one-way ANOVA followed by Tukey-Kramer).
Pathogenicity assay in apples. P. expansum spores (50 spores/ml) were incubated in 1 ml LB medium/sterile water at 25° C. 300 rpm either alone or 2 μM EaAiiA, and apples were then inoculated and incubated in the same manner as described above. Enzyme incubated with 50 mM EDTA at 90° C. for 1 hour was used as a negative control (inactivated enzyme).

[2] = Enzyme kinetics analysis of EaAiiA with patulin; details: 0.05 μM EaAiiA, patulin 0-0.4 mM, pH 7.5, 100 μM ZnCl2
Experimental: (6A) Michaelis-Menten kinetics analysis with 0.05 μM purified bacterial lactonase (EaAiiA), in activity buffer containing 100 mM Tris pH 7.5, 100 mM NaCl, 100 μM ZnCl2, at Error bars indicate standard deviation of three replicates for each treatment.
Enzyme kinetics analysis with patulin. EaAiiA activity (0.05 μM) with patulin was analyzed as follows: EaAiiA activity was measured by detecting the reduction in the UV absorbance (detected at 278 nm) of patulin at different concentrations (0-0.4 mM) in the presence of enzyme at a final concentration of 0.05 μM, in an activity buffer containing 100 mM Tris pH 7.5, 100 mM NaCl, 100 μM ZnCl2, in UV 96-well plates. An activity buffer was used as a negative control. The activity was monitored in a microtiter plate reader (BioTeK, Winooski, VT, USA). Reactions were performed as the concentration of organic solvent was lower than 1%. Vo initial rates were corrected for the patulin spontaneous hydrolysis background rate performed with an activity buffer. Kinetic parameters were obtained by GraphPad software as fitting initial rates directly to the Michaelis-Menten equation, standard deviations obtained from three independent measurements.

B1: EaAiiA: AHL lactonase encoded by Erwinia amylovora, metallo-β-lactamase fold (protein, listed as Erwinia amylovora)
chain: MNYHIIPVTAFAQNCSVIWCPETGEAALVDPGGDAQKIKHEIAALGLTVKQILLTHGHLDHVGAAAELAEHYDVPIVGPHKADKFWLDGLPQQSQMFGFDECAPLTPDRWLQEGEVVLVGNTVLEVLLCPGHTPGHIVFFERKARLLVSGDVIFSGGVGRSDFPQGSHQDLIASILNKLLPLGDDVTFIAGHGPMSTLGRERISNPFLQ
- effect of inactivated enzyme on inhibition of fungal colonization ([1]; EaAiiA inactivated by 90° C. and EDTA prior to incubation with spores): fully reduced the inhibition
- decline of colonized area ([1]; spores incubated with 2 μM EaAiiA prior to apple inoculation, third day after inoculation): 85%
- kcat [2]: 5.426 ± 1.5 s⁻¹
- Km ([2]; read-out: estimated KM): 764 ± 284 µM
